Test results as given in US20240093191A1, “COMPOSITIONS AND METHODS FOR TREATING DISEASE ASSOCIATED WITH DUX4 OVEREXPRESSION” (RESEARCH INSTITUTE AT NATIONWIDE CHILDREN'S HOSPITAL, priority 2021, published 2024).
Several values for one entry are separate records, joined by “and”; a condition that tells them apart may be missing. Identical values can stand only once.

B1: mi1311F: miDUX4 cloned with mi405F flanking sequences (nucleic acid)
DNA: GCTCGAGTGAGCGAGCGGAGAACTGCCATTCTTTCCTGTAAAGCCACAGATGGGGAAAGAATGGCAGTTCTCCGCGTGCCTACTAGTAATTCTTCGATTCTGC
modifications: expressed or natural sequence
B2: mi185F: miDUX4 cloned with mi405F flanking sequences (nucleic acid)
DNA: GCTCGAGTGAGCGAGGTCCAGATTTGGTTTCAGAACTGTAAAGCCACAGATGGGTTCTGAAACCAAATCTGGACCCTGCCTACTAGTAATTCTTCGATTCTGC
modifications: expressed or natural sequence
B3: U6-mir-675-2.4: mir-675 construct with flanks as U6.mir-675-2.3, different promoter (nucleic acid)
DNA: GAACGCTGACGTCATCAACCCGCTCCAAGGAATCGCGGGCCCAGTGTCACTAGGCGGGAACACCCAGCGCGCGTGCGCCCTGGCAGGAAGATGGCTGTGAGGGACAGGGGAGTGGCGCCCTGCAATATTTGCATGTCGCTATGTGTTCTGGGAAATCACCATAAACGTGAAATGTCTTTGGATTTGGGAATCTTATAAGTTCTGTATGAGACCACTTGGATCCAATCACACTGCCCCAGGGTCTGGTGCGGAGAGGGCCCACAGTGGACTTGGTGACGCTGTATGCCCTCACCGCTCAGCCCCTGGGGATACTCCTAATCACACTTTTTT
B4: mi318F: miDUX4 cloned with mi405F flanking sequences (nucleic acid)
DNA: GCTCGAGTGAGCGAGCCCTGCTCCTCCGAGCCTTTCTGAAAGCCACAGATGGGAAAGGCTCGGAGGAGCAGGGCGTGCCACTAGTAATTCTTCGATTCTGC
modifications: expressed or natural sequence
B5: U6-mir-675-2.6: mir-675 construct with modified 5' and 3' flanking sequences (nucleic acid)
DNA: TCTAGAGATCCGACGCCGCCATCTCTAGGCCCGCGCCGGCCCCCTCGCACAGACTTGTGGGAGAAGCTCGGCTACTCCCCTGCCCCGGTTAATTTGCATATAATATTTCCTAGTAACTATAGAGGCTTAATGTGCGATAAAAGACAGATAATCTGTTCTTTTTAATACTAGCTACATTTTACATGATAGGCTTGGATTTCTATAAGAGATACAAATACTAAATTATTATTTTAAAAAACAGCACAAAAGGAAACTCACCCTAACTGTAAAGTAATTGTGTGTTTTGAGACTATAAATATCCCTTGGAGAAAAGCCTTGTTAACGCGCCCCAGGGTCTGGTGCGGAGAGGGCCCACAGTGGACTTGGTGACGCTGTATGCCCTCACCGCTCAGCCCCTGGGGTAACTCCTAATCACACTTTTTT
B6: mi599F: miDUX4 cloned with mi405F flanking sequences (nucleic acid)
DNA: GCTCGAGTGAGCAGAGGCTCTCCCACAGGGGGCTTTCTGAAAGCCACAGATGGGAAAGCCCCCTGTGGGAGAGCCCTGCCTACTAGTAATTCTTCGATTCTGC
modifications: expressed or natural sequence
B7: U6.mi405NF: mi405 with one G at 5' end and no 3' flanking sequence (nucleic acid)
DNA: ACGCCGCCATCTCTAGGCCCGCGCCGGCCCCCTCGCACAGACTTGTGGGAGAAGCTCGGCTACTCCCCTGCCCCGGTTAATTTGCATATAATATTTCCTAGTAACTATAGAGGCTTAATGTGCGATAAAAGACAGATAATCTGTTCTTTTTAATACTAGCTACATTTTACATGATAGGCTTGGATTTCTATAAGAGATACAAATACTAAATTATTATTTTAAAAAACAGCACAAAAGGAAACTCACCCTAACTGTAAAGTAATTGTGTGTTTTGAGACTATAAATATCCCTTGGAGAAAAGCCTTGTTTGCTCGAGTGAGCGATCCAGGATTCAGATCTGGTTTCTGTAAAGCCACAGATGGGAAACCAGATCTGAATCCTGGACTGCCTACTAGATTTTTT
B8: mi1156F: miDUX4 cloned with mi405F flanking sequences (nucleic acid)
DNA: GCTCGAGTGAGCGAAGGCGCAACCTCTCCTAGAAACTGAAAGCCACAGATGGGTTTCTAGGAGAGGTTGCGCCTGTGCCTACTAGTAATTCTTCGATTCTGC
modifications: expressed or natural sequence
B9: U6.mir-675-2.2: mir-675 construct with flanks as U6.mir-675-2.1, different promoter (nucleic acid)
DNA: GAACGCTGACGTCATCAACCCGCTCCAAGGAATCGCGGGCCCAGTGTCACTAGGCGGGAACACCCAGCGCGCGTGCGCCCTGGCAGGAAGATGGCTGTGAGGGACAGGGGAGTGGCGCCCTGCAATATTTGCATGTCGCTATGTGTTCTGGGAAATCACCATAAACGTGAAATGTCTTTGGATTTGGGAATCTTATAAGTTCTGTATGAGACCACTTGGATCCCCCAGGGTCTGGTGCGGAGAGGGCCCACAGTGGACTTGGTGACGCTGTATGCCCTCACCGCTCAGCCCCTGGGGTAACTCCTAATCACACTTTTTT
B10: mi186F: miDUX4 cloned with mi405F flanking sequences (nucleic acid)
DNA: GCTCGAGTGAGCGAGTCCAGATTTGGTTTCAGAATCTGTAAAGCCACAGATGGGATTCTGAAACCAAATCTGGACCTGCCTACTAGTAATTCTTCGATTCTGC
modifications: expressed or natural sequence
B11: U6-milacZ: negative control miRNA expression plasmid (nucleic acid)
DNA: ACGCCGCCATCTCTAGGCCCGCGCCGGCCCCCTCGCACAGACTTGTGGGAGAAGCTCGGCTACTCCCCTGCCCCGGTTAATTTGCATATAATATTTCCTAGTAACTATAGAGGCTTAATGTGCGATAAAAGACAGATAATCTGTTCTTTTTAATACTAGCTACATTTTACATGATAGGCTTGGATTTCTATAAGAGATACAAATACTAAATTATTATTTTAAAAAACAGCACAAAAGGAAACTCACCCTAACTGTAAAGTAATTGTGTGTTTTGAGACTATAAATATCCCTTGGAGAAAAGCCTTGTTTGCGTTTAGTGAACCGTCAGATGGTACCGTTTAAACTCGAGTGAGCGACATGTTGCCACTCGCTTTAATCTGTAAAGCCACAGATGGGATTAAAGCGAGTGGCAACATGGCGCCTACTAGAGCGGCCGCCACAGCGGGGAGATCCAGACATGATAAGATACATTTTTT

Tests used:
Type in all cases: cell-based, human
[1] = tested on: DUX4 ORF (RenLuc-DUX4 ORF); test: Dual-luciferase assay, RenLuc-DUX4 ORF reporter co-transfected with miDUX4 plasmids in HEK293 cells; parameters: increase in relative Renilla luciferase activity compared to original miDUX4 counterpart: concentration or dose not given beside the values; conditions: for increase in relative Renilla luciferase activity compared to original miDUX4 counterpart: miDUX4 with mi405F flanking sequences
Experimental: Dual Luciferase Assay. (See also FIGS. 1A, 3A-B, 4A-B, 5B, and 16B-C.) This assay was performed as previously described by Wallace et al. (Mol. Ther. Methods Clin. Dev. 8: 121-30 (2018)) and following the dual-luciferase reporter assay system (Promega) protocol with some modifications. All plasmid constructs had the psiCheck2 dual luciferase reporter plasmid (Promega) as backbone that contains separate Renilla and Firefly luciferase genes, where the former contains the various target sequences used in the experiments of the disclosure, and the latter serves as a transfection normalizer (control). All DUX4 and control sequences were cloned downstream of the Renilla luciferase stop codon, serving as a 3′UTR. HEK293 cells were pre-plated 24h before transfection. Cells were then co-transfected with the luciferase DUX4 reporter and individual microRNA expression plasmids in an increasing luciferase DUX4 reporter:miRNA molar ratio using Lipofectamine 2000 (Invitrogen). Luciferase activity was measured 24h or 48h after transfection. DUX4 gene silencing was determined as previously described [Wallace et al., Mol. Ther. Methods Clin. Dev. 8: 121-30 (2018)]. Triplicate data were averaged per experiment, and individual experiments were performed 3 times. Results were reported as the average ratio of Renilla to Firefly luciferase activity±SEM for all combined experiments.
Accordingly, two new mi405 constructs, i.e., mi405F and mi405NF, were designed. […] To assess the inhibition efficiency of the three mi405 constructs, a dual-luciferase assay and western blot analysis, similar to what was described for mir-675, were carried out. In the dual-luciferase assay, U6.mi405, U6.mi405F, or U6.mi405NF was co-transfected into HEK293 cells along with the RenLuc-DUX4 ORF (a construct expressing the open reading frame of DUX4 as a 3′UTR sequence of Renilla Luciferase). 24 h after transfection, U6.mi405, U6.mi405F, and U6.mi405NF reduced the relative Renilla luciferase activity by 85±1%, 89±1%, and 66±1% (P<0.0001, ANOVA, N=3), respectively, when tested against the RenLuc-DUX4 ORF construct.

DUX4 protein = test: Western blot of V5-tagged DUX4 protein in co-transfected HEK293 cells; conditions: HEK293; for Average inhibition efficiency (%) of DUX4 protein levels: CMV.DUX4-FL/CMV.eGFP, molar ratio 1 to 3, eGFP normalizer, relative to U6-milacZ, N = 3-8
Experimental: Western Blots. […] 50 mM Tris (pH 7.5-8.0), 150 mM NaCl, 0.1% (v/v) SDS, 0.5% (v/v) deoxycholate, 1% (v/v) triton X-100 (Fisher Scientific) and 1 tablet of protease inhibitor (ThermoFisher Scientific) per 10 mL of buffer. The total protein extract was quantified using the DC Protein Assay (Bio-Rad). Twenty microgram samples were separated on 12% SDS-PAGE, transferred to nitrocellulose membrane, using the wet transfer system, and incubated with the following antibodies: mouse monoclonal antibody to V5 (horseradish peroxidase [HRP]-coupled) [1:5,000 in 5% milk TBST buffer (150 mM NaCl, 50 mM Tris-HCl pH 7.4 and 0.1% Tween 20 (Fisher Scientific)), R961-25; Invitrogen); rabbit polyclonal eGFP antibody (1:50,000 in 3% BSA PBS, ab290; Abcam); mouse monoclonal β-actin antibodies (1:60,000; Sigma, St Louis, MO); overnight at 4° C. When using the eGFP antibody, membranes were blocked 30 mins with 3% BSA PBS prior to blotting. eGFP-probed blots were washed five times, 5 min each with 0.5% Tween 20 (Fisher Scientific) in TBST buffer, and then incubated with HRP-coupled goat anti-rabbit secondary antibody (1:250,000 in 3% BSA PBS, 115-035-144; Jackson ImmunoResearch) for 2 hours at room temperature. V5-probed blots were washed five times, 5 min each with 0.1% Tween 20 in TBST buffer. Following washes, blots were developed using Immobilon Western HRP substrate (Millipore) and exposed to film. DUX4.V5, and eGFP quantification was assessed using ImageJ.

mir-675-5p = test: Small-transcript northern blot of mir-675 processing in HEK293 cells; conditions: HEK293; anti-mir-675-5p biotinylated probe
Excerpt: Small-Transcript Northern Blots. […] (SEQ ID NO: 148)).

Row | Molecule | increase in relative Renilla luciferase activity compared to original miDUX4 counterpart ([1]; normalized to miGFP) | Average inhibition efficiency (%) of DUX4 protein levels (DUX4 protein) | further results
1 | B1 | 27±9% | – | –
2 | B2 | 160±8% | – | –
3 | B3 | – | 63 ± 7 (N = 5) % | –
4 | B4 | 44±15% | – | –
5 | B5 | – | 63 ± 2 (N = 5) % | –
6 | B6 | 24±9% | – | –
7 | B7 | – | – | reduction of relative Renilla luciferase activity ([1]; 1:4 DUX4:mi405 molar ratio, HEK293, 24 h, normalized to miGFP): 66±1%; reduction of Renilla luciferase activity ([1]; DUX4:mi405 molar ratio 2 to 1, HEK293, 24 h, normalized to U6.miGFP): 4±2% and 3.6±1.8%; relative Renilla luciferase activity reached ([1]; DUX4:miDUX4 molar ratio 1:1): 88±3%; increase in relative Renilla luciferase activity ([1]; switching from molar ratio 1:2 to 1:1 DUX4:miDUX4): 73±7%; reduction of DUX4 protein levels (DUX4 protein; 1:4 DUX4:mi405 molar ratio, 24 h, normalized to miGFP, N=2): 70±13%
8 | B8 | 34±8% | – | –
9 | B9 | – | 58 ± 6 (N = 5) % | mature mir-675-5p bands on northern blot (mir-675-5p): detectable mir-675 mature sequences
10 | B10 | 27±9% | – | –
11 | B11 | – | 0 ± 2 (N = 8) % | –
